Data taken from patent US20260274985A1 (MYTHIC THERAPEUTICS, published 2026).
Changes are numbered by the printed parent chain. Values belong to the binder of their own block, whether it stands above or below them.

Key:
[1] = target: T1, Human TROP2 Protein, His Tag (human, UniProt P09758 27-274); test: BLI (Octet) [2/2]
T1 construct: Bought protein; also called TACSTD2; not shown: His tag
T1 sequence (looked up): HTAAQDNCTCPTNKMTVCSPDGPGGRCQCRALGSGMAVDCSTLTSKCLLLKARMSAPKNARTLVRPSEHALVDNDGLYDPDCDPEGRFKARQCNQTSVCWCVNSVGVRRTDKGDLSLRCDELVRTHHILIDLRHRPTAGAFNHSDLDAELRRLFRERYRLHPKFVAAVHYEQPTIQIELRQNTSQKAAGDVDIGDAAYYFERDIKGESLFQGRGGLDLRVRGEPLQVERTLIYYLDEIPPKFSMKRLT
Description: After allowing for four days of protein expression, cell culture supernatants were collected, quantified by SDS-PAGE analysis (DNS), and the pH dependence of the variant was evaluated using biolayer interferometry (BLI) on an Octet RED 96e instrument. Briefly, cell culture supernatants were diluted based on qualitative expression level of the variant determined by visual examination of SDS-PAGE gels, 5 μL of cell culture supernatant was diluted into 195 μL of 1×PBST, pH 7.4 for high expressors, 25 μL of cell culture supernatant was diluted into 175 μL of 1×PBST, pH 7.4 for medium expressors and 100 μL of cell culture supernatant was diluted into 100 μL of 1×PBST, pH 7.4 for low expressors for loading onto the sensor tips. The resulting diluted supernatants were then captured on an anti-human Fc sensor (Forte Bio). A baseline was established using 1×PBST (50 mM Potassium Phosphate Buffer+150 mM NaCl+0.05% Tween 20) pH 7.4, and the sensor was associated with 50 nM of TROP2 (Human TROP2 Protein, His Tag, Acro Biosystems) in 1×PBST pH 7.4 for 120 sec to generate an association curve. In the dissociation phase, the antibody-antigen complex on the sensor was exposed to 1×PBST pH 7.4 or pH 5.4, for 300 sec. Association and dissociation phase curves were examined for the starting ABPC antibody (with no substitutions) and each corresponding antibody variant at pH 5.4 and pH 7.4 to inform on two criteria: a) enhanced dissociation (i.e., higher koff values) at pH 5.4 due to histidine or alanine substitution compared to the starting ABPC, (with no substitutions), and b) reduced dissociation at pH 7.4 (i.e., lower koff values) compared to pH 5.4 in the antibody variant itself and with the starting ABPC (with no substitutions). […] It was also noted that while some mutations obliterated TROP2 binding, others were tolerated with little or n change in TROP2 binding kinetics.

[2] = target: T2, Human TROP2 Protein, His Tag (Acro Biosystems) (human, UniProt P09758 27-274); test: BLI (Octet) [1/2]
T2 construct: Soluble analyte of the Octet assay; also called TACSTD2; not shown: His tag
T2 sequence (looked up): T1 sequence (looked up)

[3] = target: T3, Human TROP2 Protein, His Tag (Acro Biosystems) (human, UniProt P09758 27-274); test: BLI (Octet)
T3 construct: not shown: His tag
T3 sequence (looked up): T1 sequence (looked up)

B1: MYT11677 (antibody, V domains shown)
VH: QVQLVQSGAEVKKPGASVKVSCKASGYTFTTAGMQWVRQAPGQGLEWMGWINTHSGVPKYAEDFKGRVTISADTSTSTAYLQLSSLKSEDTAVYYCARSGFGSSYWYFDVWGQGTLVTVSS
VL: DIQMTQSPSSLSASVGDRVTITCHASQDVSTAVAWYQQKPGKAPKLLIYSASYRYTGVPSRFSGSGSGTDFTLTISSLQPEDFAVYYCQQHYITPLTFGQGTKLEIK
notes: IgG from supernatant; His at LCV position 24; also called datopotamab variant L1 01
binding result [1]: binds

B2: MYT13236 (antibody, V domains shown)
VH: QVQLQQSGSELKKPGASVKVSCKASGYTFTNYGMNWVKQAPGQGLKWMGWINTYTGEPTYTDHFKGRFAFSLDTSVSTAYLQISSLKADDTAVYFCARGGFGSSYWYFDVWGQGSLVTVSS
VL: B1 VL with M4L, T20S, H24K, T31I, A51H, S52H, S60D, Q100A, L104V
notes: Sacituzumab HC-LC pairing variant; IgG
binding result [2]: binds

B3: MYT13240 (antibody, V domains shown)
VH: B2 VH with Y32H, H63D
VL: B1 VL with M4L, T20S, H24K, T31I, A51H, S60D, Q89H, Q100A, L104V
notes: as for B2
binding result [2]: binds

B4: MYT11684 (antibody, V domains shown)
VH: B1 VH
VL: B1 VL with H24K, T31H
notes: IgG from supernatant; His at LCV position 31; also called datopotamab variant L1 08
binding result [1]: binds

B5: MYT12349 (antibody, V domains shown)
VH: B2 VH with H63D
VL: B1 VL with M4L, T20S, H24K, T31I, A51H, S60D, Q89H, Q100A, L104V
notes: sacituzumab VL 51, 89 -> H
binding result [3]: binds

B6: MYT13248 (antibody, V domains shown)
VH: B2 VH with Y32H, H63D
VL: B1 VL with M4L, T20S, H24K, T31I, S52H, S60D, I93H, Q100A, L104V
notes: as for B2
binding result [2]: binds

B7: MYT12367 (antibody, V domains shown)
VH: B2 VH with H63D
VL: B1 VL with M4L, T20S, H24K, T31I, S60D, Y92H, I93H, Q100A, L104V
notes: sacituzumab VL 92, 93 -> H
binding result [3]: binds

B8: MYT11681 (antibody, V domains shown)
VH: B1 VH
VL: B1 VL with H24K, D28H
notes: IgG from supernatant; His at LCV position 28; also called datopotamab variant L1 05
binding result [1]: binds

B9: MYT12358 (antibody, V domains shown)
VH: B2 VH with H63D
VL: B1 VL with M4L, T20S, H24K, T31I, Y53H, S60D, Q89H, Q100A, L104V
notes: sacituzumab VL 53, 89 -> H
binding result [3]: binds

B10: MYT12302 (antibody, V domains shown)
VH: B2 VH with G33H, D62H, H63D
VL: B1 VL with M4L, T20S, H24K, T31I, S60D, Q100A, L104V
notes: sacituzumab VH 33, 62 -> H
binding result [3]: binds

B11: MYT12347 (antibody, V domains shown)
VH: B2 VH with H63D
VL: B1 VL with M4L, T20S, H24K, T31I, A51H, S52H, S60D, Q100A, L104V
notes: sacituzumab VL 51, 52 -> H
binding result [3]: binds

B12: MYT12298 (antibody, V domains shown)
VH: B2 VH with Y32H, H63D, F64H
VL: B1 VL with M4L, T20S, H24K, T31I, S60D, Q100A, L104V
notes: sacituzumab VH 32, 64 -> H
binding result [3]: binds

B13: MYT12343 (antibody, V domains shown)
VH: B2 VH with H63D
VL: B1 VL with M4L, T20S, H24K, T31I, V33H, S60D, Q89H, Q100A, L104V
notes: sacituzumab VL 33, 89 -> H
binding result [3]: binds

B14: MYT12319 (antibody, V domains shown)
VH: B2 VH with H63D, F64H, K65H
VL: B1 VL with M4L, T20S, H24K, T31I, S60D, Q100A, L104V
notes: sacituzumab VH 64, 65 -> H
binding result [3]: binds

B15: MYT12318 (antibody, V domains shown)
VH: B2 VH with G66H
VL: B1 VL with M4L, T20S, H24K, T31I, S60D, Q100A, L104V
notes: sacituzumab VH 63, 66 -> H
binding result [3]: binds

Second part, the binder after the results:

binding result [2]: binds
B16: MYT13245 (antibody, V domains shown)
VH: B2 VH with H63D, F64H
VL: B1 VL with M4L, T20S, H24K, T31I, A51H, S60D, Q89H, Q100A, L104V
notes: as for B2

binding result [3]: binds
B17: MYT12369 (antibody, V domains shown)
VH: B2 VH with H63D
VL: B1 VL with M4L, T20S, H24K, S30H, T31I, A51H, S60D, Q89H, Q100A, L104V
notes: sacituzumab VL 30, 51, 89 -> H

binding result [2]: binds
B18: MYT13246 (antibody, V domains shown)
VH: B2 VH with H63D, K65H
VL: B1 VL with M4L, T20S, H24K, T31I, A51H, S60D, Q89H, Q100A, L104V
notes: as for B2

binding result [3]: binds
B19: MYT12306 (antibody, V domains shown)
VH: B2 VH with G33H, H63D, G66H
VL: B1 VL with M4L, T20S, H24K, T31I, S60D, Q100A, L104V
notes: sacituzumab VH 33, 66 -> H

binding result [2]: binds
B20: MYT13247 (antibody, V domains shown)
VH: B2 VH with H63D, G66H
VL: B1 VL with M4L, T20S, H24K, T31I, A51H, S60D, Q89H, Q100A, L104V
notes: as for B2

binding result [1]: no binding (tested: 50 nM)
B21: MYT11685 (antibody, V domains shown)
VH: B1 VH
VL: B1 VL with H24K, A32H
notes: IgG from supernatant; His at LCV position 32; also called datopotamab variant L1 09

binding result [3]: binds
B22: MYT12348 (antibody, V domains shown)
VH: B2 VH with H63D
VL: B1 VL with M4L, T20S, H24K, T31I, A51H, Y53H, S60D, Q100A, L104V
notes: sacituzumab VL 51, 53 -> H

binding result [3]: binds
B23: MYT12297 (antibody, V domains shown)
VH: B2 VH with Y32H
VL: B1 VL with M4L, T20S, H24K, T31I, S60D, Q100A, L104V
notes: sacituzumab VH 32, 63 -> H

binding result [2]: binds
B24: MYT13244 (antibody, V domains shown)
VH: B2 VH
VL: B1 VL with M4L, T20S, H24K, T31I, A51H, S60D, Q89H, Q100A, L104V
notes: as for B2

binding result [2]: binds
B25: MYT13243 (antibody, V domains shown)
VH: B2 VH with D62H, H63D
VL: B1 VL with M4L, T20S, H24K, T31I, A51H, S60D, Q89H, Q100A, L104V
notes: as for B2

binding result [3]: binds
B26: MYT12346 (antibody, V domains shown)
VH: B2 VH with H63D
VL: B1 VL with M4L, T20S, H24K, T31I, V33H, S60D, I93H, Q100A, L104V
notes: sacituzumab VL 33, 93 -> H

binding result [3]: binds
B27: MYT12354 (antibody, V domains shown)
VH: B2 VH with H63D
VL: B1 VL with M4L, T20S, H24K, T31I, S52H, S60D, Q89H, Q100A, L104V
notes: sacituzumab VL 52, 89 -> H

binding result [3]: binds
B28: MYT12370 (antibody, V domains shown)
VH: B2 VH with H63D
VL: B1 VL with M4L, T20S, H24K, S30H, T31I, A51H, S60D, I93H, Q100A, L104V
notes: sacituzumab VL 30, 51, 93 -> H

binding result [3]: binds
B29: MYT12310 (antibody, V domains shown)
VH: B2 VH with Y60H, H63D, K65H
VL: B1 VL with M4L, T20S, H24K, T31I, S60D, Q100A, L104V
notes: sacituzumab VH 60, 65 -> H

binding result [3]: binds
B30: MYT12368 (antibody, V domains shown)
VH: B2 VH with H63D
VL: B1 VL with M4L, T20S, H24K, S30H, T31I, A51H, Y53H, S60D, Q100A, L104V
notes: sacituzumab VL 30, 51, 53 -> H

binding result [3]: binds
B31: MYT12320 (antibody, V domains shown)
VH: B2 VH with H63D, F64H, G66H
VL: B1 VL with M4L, T20S, H24K, T31I, S60D, Q100A, L104V
notes: sacituzumab VH 64, 66 -> H

binding result [3]: binds
B32: MYT12373 (antibody, V domains shown)
VH: B2 VH with H63D
VL: B1 VL with M4L, T20S, H24K, S30H, T31I, S60D, Q89H, I93H, Q100A, L104V
notes: sacituzumab VL 30, 89, 93 -> H

binding result [1]: binds
B33: MYT11683 (antibody, V domains shown)
VH: B1 VH
VL: B1 VL with H24K, S30H
notes: IgG from supernatant; His at LCV position 30; also called datopotamab variant L1 07

binding result [2]: binds
B34: MYT13242 (antibody, V domains shown)
VH: B2 VH with Y60H, H63D
VL: B1 VL with M4L, T20S, H24K, T31I, A51H, S60D, Q89H, Q100A, L104V
notes: as for B2

binding result [3]: binds
B35: MYT12342 (antibody, V domains shown)
VH: B2 VH with H63D
VL: B1 VL with M4L, T20S, H24K, T31I, V33H, Y53H, S60D, Q100A, L104V
notes: sacituzumab VL 33, 53 -> H

binding result [3]: binds
B36: MYT12295 (antibody, V domains shown)
VH: B2 VH with Y32H, Y60H, H63D
VL: B1 VL with M4L, T20S, H24K, T31I, S60D, Q100A, L104V
notes: sacituzumab VH 32, 60 -> H
